Laboratory results from PMC10004744, “H-rGO-Pd NPs Nanozyme Enhanced Silver Deposition Strategy for Electrochemical Detection of Glypican-3”.

Target: Glypican-3 (GPC3) (UniProt P51654 25-554)
Assay: electrochemical sandwich aptasensor (DPV silver stripping; EIS); GPC3 captured by GPC3 antibody on Au NPs@rGO/SPE; aptamer on H-rGO-Pd NPs; response 0.01-100 ug/mL, LOD 3.30 ng/mL (not a Kd); PBS 0.1 mol/L as electrolyte; probe in Tris-EDTA buffer; 5.0 umol/L GPC3Apt; response time 30 min; incubation temperature tested 4-37 C; pH not given in material
Conditions: protein: commercial; label: adsorbed on H-rGO-Pd NPs nanozyme (signal probe)

Glypican-3 (GPC3), sequence (P51654 25-554): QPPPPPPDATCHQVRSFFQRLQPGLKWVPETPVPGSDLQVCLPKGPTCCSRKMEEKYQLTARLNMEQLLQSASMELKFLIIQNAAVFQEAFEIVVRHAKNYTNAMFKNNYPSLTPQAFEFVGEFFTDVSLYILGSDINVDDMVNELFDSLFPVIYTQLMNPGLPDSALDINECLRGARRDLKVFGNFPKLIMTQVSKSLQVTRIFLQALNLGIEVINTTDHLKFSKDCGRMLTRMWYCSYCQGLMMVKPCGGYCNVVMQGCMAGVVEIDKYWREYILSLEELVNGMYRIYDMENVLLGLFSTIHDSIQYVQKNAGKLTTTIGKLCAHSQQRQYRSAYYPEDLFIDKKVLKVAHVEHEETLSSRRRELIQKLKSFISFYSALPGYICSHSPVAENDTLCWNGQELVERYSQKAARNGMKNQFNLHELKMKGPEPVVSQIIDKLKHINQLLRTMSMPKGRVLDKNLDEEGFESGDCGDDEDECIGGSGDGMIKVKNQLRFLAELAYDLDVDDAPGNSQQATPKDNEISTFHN

Does TAACGCTGACCTTAGCTGGATTTTACATGTTCCA (ssDNA, 5'-NH2) [GPC3Apt] bind?
Result: binds
